Laboratory results taken from patent publication US20240317885A1 (published 2024).

T1: Tax interacting protein-1 (TIP1), recombinant / purified protein (UniProt O14907 1-124)
T1 chain: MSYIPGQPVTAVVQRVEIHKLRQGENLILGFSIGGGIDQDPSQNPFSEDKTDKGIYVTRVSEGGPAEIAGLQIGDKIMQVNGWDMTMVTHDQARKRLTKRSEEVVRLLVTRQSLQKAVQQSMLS


Key:
[1] = target: T1, Tax interacting protein-1 (TIP1), …; test: ELISA
[2] = target: T1, Tax interacting protein-1 (TIP1), …; test: Biacore
[3] = target: T1, Tax interacting protein-1 (TIP1), …; test: Biacore
[4] = target: T1, Tax interacting protein-1 (TIP1), …; test: ELISA
v144 = test: Biacore
v127 = test: Biacore

Binder | EC50 [1] [nM] | Kd [2] [nM] | Kd [3] [nM] | Kd [4] [nM] | Kd (v144) [nM] | Kd (v127) [nM]
human IgG1 v111 (antibody, V domains shown) VH: QMQLVQSGAEVKKPGESLKISCKGSGYSFTSNWIGWVRQMPGKGLEWMGIIYPGDSDTRYSPSFQGQVTISADKSISTAYLQWSSLKASDTAMYYCARQQGHDAFDIWGQGTTVTVSS VL: SYELTQPPSVSVSPGQTARITCSGDALPKRYAYWYRQKPGQAPVLVIQKDTERPSGIPERFSGSISGTTVTLTISGVQAEDEADYYCQSTDSSASYAVFGGGTKLTVL | 0.164 | 0.107 | 0.107 | 0.124 |  | 
TIP1 (other) MSYIPGQPVTAVVQRVEIHKLRQGENLILGFSIGGGIDQDPSQNPFSEDKTDKGIYVTRVSEGGPAEIAGLQIGDKIMQVNGWDMTMVTHDQARKRLTKRSEEVVRLLVTRQSLQKAVQQSMLS |  |  |  |  | 0.241 | 0.13
